T1: ADP-ribosyl cyclase 2 (CD157; BST1) (human, UniProt Q10588 33-293)
T1 construct: Endogenous lipid-anchored BST1 on human cell lines (A549, H226, U937) and on AML patient blasts; also called Bone marrow stromal antigen 1; cell-surface human BST1
T1 sequence: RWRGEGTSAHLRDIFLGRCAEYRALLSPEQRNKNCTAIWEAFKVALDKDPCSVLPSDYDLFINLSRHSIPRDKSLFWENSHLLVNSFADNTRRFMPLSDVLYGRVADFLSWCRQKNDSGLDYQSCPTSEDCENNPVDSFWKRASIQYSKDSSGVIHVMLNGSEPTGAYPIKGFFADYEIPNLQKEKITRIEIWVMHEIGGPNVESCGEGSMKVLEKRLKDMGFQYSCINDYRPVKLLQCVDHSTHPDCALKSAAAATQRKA

T2: cell surface BST1 protein (Homo sapiens, UniProt Q10588)
T2 construct: the antibodies were incubated with the BST1-expressing cells, A549 and H226, from human lung adenocarcinoma and human lung squamous carcinoma; endogenous in cells; host or cells: A549 (human lung adenocarcinoma) and H226 (human lung squamous carcinoma)
T2 sequence (Q10588 33-293): T1 sequence

B1: BST1_A2 (murine, as selected in Example 2) (Fab, V domains shown)
VH: QAYLQQSGPELVKAGASVKMSCKASGYSFIEYTINWVKQSHGKSLEWIGNIDPYYGTTYYNQMFTGKATLTVDQSSNTAYMQLKSLTSEDSAVYFCARGSAWFPYWGQGTLVTVSA
VL: DIVMSQSPAIMSASPGEKVTMTCSASSSVTYMYWYQQKPGSSPRLLIYDTSNLASGVPVRFSGSGSGTSYSLTISRMEAEDTATYYCQQWSNYPLTFGAGTKLELKR
notes: also called anti-BST1 monoclonal antibody BST1_A2
B2: BST_A3: anti-BST1 monoclonal antibody, VH SEQ ID NO: 52, VK SEQ ID NO: 53 (antibody, listed as Mus musculus)
heavy: MKQSTIALALLPLLFTPVAKAQVQLQQSRAELVMPGASVKMSCKTSGYTFSDYWVHWVRQRPGQGLEWIGAIDGSDTFNDYSQKFKGRATLTVDESSSTVYMQLSSLTSEDSAVYYCARGGLLQYWGQGTTLTVSSAKTTPPSVYPLAPGSAAQTNSMVTLGCLVKGYFPEPVTVTWNSGSLSSGVHTFPAVLQSDLYTLSSSVTVPSSTWPSETVTCNVAHPASSTKVDKKIVPRDCHHHHHHH
light: MKYLLPTAAAGLLLLAAQPAMADIQLTQSPASLSASVGETVTITCRASENIYSYLAWYQQKQGKSPQLLVYNTKTLGEGVPSRFSGSGSGTQFSLKINSLQPEDFGSYYCQHHYGTPFTFGSGTKLEIKRADAAPTVSIFPPSSEQLTSGGASVVCFLNNFYPKDINVKWKIDGSERQNGVLNSWTDQDSKDSTYSMSSTLTLTKDEYERHNSYTCEATHKTSTSPIVKSFNRNES
B3: BST1_A3 (Fab, V domains shown)
VH: QVQLQQSRAELVMPGASVKMSCKTSGYTFSDYWVHWVRQRPGQGLEWIGAIDGSDTFNDYSQKFKGRATLTVDESSSTVYMQLSSLTSEDSAVYYCARGGLLQYWGQGTTLTVSS
VL: DIQLTQSPASLSASVGETVTITCRASENIYSYLAWYQQKQGKSPQLLVYNTKTLGEGVPSRFSGSGSGTQFSLKINSLQPEDFGSYYCQHHYGTPFTFGSGTKLEIKR
B4: BST1_A1 (Fab, V domains shown)
VH: QVKLQQSGAELVRPGSSVKISCKASGYAFSNSWINWVKQRPGQGLEWIGQIYPGDYDTNYNGKFKGKATLTADYSSSTAYMQLNSLTSEDSAVYFCARGGSIYYGNLGFFDVWGAGTTVTVSS
VL: EMVLTQSPAIMSTSLGERVTMTCTASSRVSSSYLHWYQQKPGSSPKLWIYSTSNLASGVPARFSGSGSGTSYSLTISSMEAEDAATYYCHQYHRSPYTFGGGTKLEIKR
notes: also called anti-BST1 monoclonal antibody BST1_A1
B5: BST1_A1: anti-BST1 monoclonal antibody, VH SEQ ID NO: 1, VK SEQ ID NO: 3, murine VH 1-80 / VK 4-74 (antibody, listed as Mus musculus)
heavy: MKQSTIALALLPLLFTPVAKAQVKLQQSGAELVRPGSSVKISCKASGYAFSNSWINWVKQRPGQGLEWIGQIYPGDYDTNYNGKFKGKATLTADYSSSTAYMQLNSLTSEDSAVYFCARGGSIYYGNLGFFDVWGAGTTVTVSSAKTTPPSVYPLAPGSAAQTNSMVTLGCLVKGYFPEPVTVTWNSGSLSSGVHTFPAVLQSDLYTLSSSVTVPSSTWPSETVTCNVAHPASSTKVDKKIVPRDCHHHHHHH
light: MKYLLPTAAAGLLLLAAQPAMAEMVLTQSPAIMSTSLGERVTMTCTASSRVSSSYLHWYQQKPGSSPKLWIYSTSNLASGVPARFSGSGSGTSYSLTISSMEAEDAATYYCHQYHRSPYTFGGGTKLEIKRADAAPTVSIFPPSSEQLTSGGASVVCFLNNFYPKDINVKWKIDGSERQNGVLNSWTDQDSKDSTYSMSSTLTLTKDEYERHNSYTCEATHKTSTSPIVKSFNRNES

Legend:
[1] = target: T1, ADP-ribosyl cyclase 2 (CD157; BST1); experiment: flow cytometry on BST1-expressing H226 and A549 cells, PE-labelled secondary antibody, geometric mean fluorescence; single antibody dilution, concentration not given
Description: (§1) The specificity of antibodies against the BST1 selected in Example 2 was tested by flow cytometry. To test the ability of the antibodies to bind to the cell surface BST1 protein, the antibodies were incubated with the BST1-expressing cells, A549 and H226, from human lung adenocarcinoma and human lung squamous carcinoma, respectively. Cells were washed in FACS buffer (DPBS, 2% FBS), centrifuged and resuspended in 100 μl of the diluted primary BST1 antibody (also diluted in FACS buffer). The antibody-A549 complex was incubated on ice for 60 min and then washed twice with FACS buffer as described above. The cell-antibody pellet was resuspended in 100 μl of the diluted secondary antibody (also diluted in FACS buffer) and incubated on ice for 60 min on ice. The pellet was washed as before and resuspended in 200 μl FACS buffer. The samples were loaded onto the BD FACScanto II flow sytometer and the data analyzed using the BD FACSdiva software.

[2] = target: T2, cell surface BST1 protein; experiment: Flow cytometry binding of anti-BST1 antibodies to BST1-expressing cells; conditions: A549 and H226 cells
Description: as §1

[3] = test system: A549 cells; experiment: MabZAP internalization assay, A549 cells; type: cell-based; conditions: compared to anti-human IgG isotype control
Description: (§2) Internalization of BST1_A1 and BST1_A2 by H226 and A549 were investigated using a MabZap assay. […] (Advanced Targeting System, San Diego, Calif., IT-22-100). First, BST1 Fab was bound to the surface of the cells. Then, the MabZAP antibodies were bound to the primary antibodies. Next, the MabZAP complex was internalized by the cells.
(§3) The MabZAP assay was conducted as follows. Each of the cells was seeded at a density of 5×10^3 cells per well. The anti-BST1 monoclonal antibody or an isotype control human IgG was serially diluted then added to the cells and incubated for 15 min at 25° C. The MabZAP was then added and incubated for 72 hr at 37° C. Cell viability in the plates was detected by CellTiter-Glo® Luminescent Cell Viability Assay kit (Promega, G7571) and the plates were read and analysed using Promega Glomax. Cell death was proportional to the concentration of anti-BST1 monoclonal antibodies.

[4] = test system: H226 cells; experiment: MabZAP internalization assay, H226 cells; type: cell-based; conditions: compared to anti-human IgG isotype control
Description: as §2, §3

Molecule | binding result [1] | binding to cell-surface human BST1 [2] | internalization (MabZAP) [3] | internalization (MabZAP) [4]
B1 | binds | – | – | –
B2 | – | bound effectively | – | –
B3 | binds | – | – | –
B4 | binds | – | – | –
B5 | – | bound effectively | efficiently internalized | efficiently internalized

Reference: patent publication US20200231694A1, “PHARMACEUTICAL COMBINATIONS COMPRISING AN ANTI-BST-1 ANTIBODY AND A CYTIDINE ANALOGUE” (BERLIN-CHEMIE AG, priority 2017, published 2020)
